“Also recorded” adds a separate entry of the source.
Legend:
baboons (Papio anubis) [1] = assay: Thrombosis model, collagen coated 4 mm i.d. vascular grafts in AV shunt: platelet and fibrin deposition; format: in vivo, baboon (Papio anubis)
Method: A total of 39 non-terminal studies were performed on 17 normal juvenile male baboons (Papio anubis) weighing 9-11 kg. Experiments were conducted on non-anticoagulated awake animals that had chronic exteriorized arterio-venous (AV) shunts previously placed between the femoral artery and vein, as described elsewhere (Hanson et al. (1993) J. Clin. Invest. 92:2003-2012). Baseline shunt blood flow exceeded 250 ml/min in all study animals. Anxiety was managed with low dose ketamine (<2 mg/kg/hr). Platelet counts, red cell counts, and hematocrits were measured daily, before and after the experiments.
Thrombus formation was initiated within the baboon AV shunt by interposing a thrombogenic segment of prosthetic vascular graft (ePTFE, WL Gore & Co., Flagstaff, Ariz.), as previously described (Hanson et al. (1993) J. Clin. Invest. 92:2003-2012). To consistently trigger platelet-dependent thrombus formation, the clinical graft segments were coated with immobilized collagen. Twenty mm long grafts having internal diameters (i.d.) of either 2 or 4 mm were filled with equine type I collagen (1 mg/ml; Nycomed Arzenmittel, Munich, Germany) for 15 min, and then dried overnight under sterile airflow. This method produced a uniform collagen coating within the graft lumen as determined by scanning electron microscopy (FIGS. 1B and 1C). The thrombogenic collagen-coated grafts were then incorporated between segments of silicon rubber tubing, and deployed into the AV shunts (FIG. 1A). The grafts were exposed to blood for up to 60 min. During each experiment, the blood flow rate through the graft was restricted to 100 ml/min by clamping the proximal silicone rubber shunt segment, thereby producing a mean wall shear rate (MWSR) in the 4 mm grafts of 265 s^−1, while in the 2 mm grafts the initial MWSR was 2120 s^−1. Flow rates were continuously monitored using an ultrasonic flow meter (Transonics Systems, Ithaca, N.Y.). […] Baseline blood flow was restored through the permanent shunt after each experiment. In the 2 mm diameter grafts blood flow rates progressively declined due to thrombus formation. The grafts were removed from the AV shunts when the flow rate fell from 100 ml/min to below 20 ml/min, signaling imminent occlusion. The time from initiation of blood flow to graft removal (<20 ml/min blood flow) was taken as the occlusion time.
For imaging of the platelet deposition, autologous baboon platelets were labeled with 1 mCi of ^111In-oxine as previously described (Hanson et al. (1993) J. Clin. Invest. 92:2003-2012). Labeled platelets were infused and allowed to circulate for at least 1 h before studies were performed. Accumulation of labeled platelets onto thrombogenic grafts were measured in 5-min intervals using a gamma scintillation camera. Homologous ^125I-labeled baboon fibrinogen (4 μCi, >90% clottable) was infused 10 min before each study, and incorporation of the labeled fibrin within the thrombus was assessed using a gamma counter 30 days later to allow the ^111In to decay. The radioactivity deposited (cpm) was divided by the clottable fibrin(ogen) radioactivity of samples taken at the time of the original study (cpm/mg).

baboons = assay: Observation for adverse reactions and bleeding events; format: in vivo, baboon
platelet rich plasma = assay: Platelet aggregation in platelet rich plasma in response to ADP and collagen; format: cell-based, baboon; conditions: platelet rich plasma of treated animals versus control
baboons (Papio anubis) [2] = assay: Local and systemic TAT, βTG and D-dimer during thrombus formation (4 mm grafts); format: in vivo, baboon (Papio anubis)
Method: A novel local sampling method was used to assess the local production of thrombogenic mediators by sampling blood that superfused propagating experimental thrombi. […] All blood samples were collected into 1/10th volume 3.8% citrate anticoagulant. Systemic samples (1 ml each) were collected before initiation of thrombosis as well as 30 and 60 min into each study. A total of 6 local blood samples were drawn from the peripheral blood IBL at a rate of 100 μl/min over 10 min intervals out of a 0.64 mm port which was located 10 mm distal to the growing thrombus (FIG. 1A). […] Infusion and sampling were regulated by syringe pumps (Harvard Apparatus). Local sampling was performed only with the 4 mm i.d. devices in this study.
Blood cell counts were determined using a micro-60 automated cell counter (Horiba-ABX Diagnostics). Blood samples were divided into two aliquots and processed according to specific test requirements. All samples were placed on ice for 10 min, centrifuged at 4° C. for 10 min at 12,900 g, and the plasmas were stored at −80° C. For β-thromboglobulin (βTG) determinations, the samples were supplemented with 4 μg/ml prostaglandin E1 (PGE1), 4.3 mg/ml acetylsalicylic acid (ASA), and 50 μg/ml PPACK. Cross-reacting ELISA assays were used to determine D-dimer levels (IMUCLONE® D-Dimer, American Diagnostica; LOD: 35 ng/mL), the platelet activation marker βTG (Asserachrom®, Diagnostica Stago; LOD: 5 IU/mL), and thrombin-antithrombin complexes (TAT, Enzygnost-TAT, Dade-Behring; LOD: 2 ng/mL). All ELISA test kits utilized for these studies have previously shown sensitivity to baboon markers.

FXI = assay: Pilot experiment: FXI:Ag, FXI inhibitor and FXI procoagulant activity after aXIMab in a single baboon; format: in vivo
Method: The maximum achievable prolongation of the aPTT was about 2.5 fold. FXI:Ag was measured by ELISA using goat anti-human FXI polyclonal capture and detection (horseradish peroxidase conjugated [HRP]) antibodies (Affinity Biologicals, Hamilton, Ontario), which also recognized baboon FXI and its complex with aXIMab. A standard curve was constructed with serial dilutions of NBP, and FXI concentrations were determined in percentage of NBP. Western blots for FXI were performed by size fractionation of 1 μl samples of plasma under non-reducing conditions on 7.5% polyacrylamide-SDS gels, followed by transfer to PVDF membranes. Detection was with a goat-anti-human FXI polyclonal antibody conjugated to HRP and chemiluminescence.

[3] = test system: third apple (A3) domain of the FXI heavy chain; assay: Immunoblotting of FXI and recombinant FXI/prekallikrein chimeras; format: binding, human; conditions: for FXI domain recognized: immunoblotting of recombinant FXI/prekallikrein chimeras
Method: Comparative binding studies for monoclonal antibody 1A6 were conducted using FXI, Prekallikrein (PK), and FXI/PK chimeras involving either the substitution FXI domains with PK domains (FIG. 9) or the substitution of PK domains with FXI domains (FIG. 10).

B1: aXIMab: neutralizing murine IgG/kappa anti-human FXI monoclonal antibody from hybridoma 1A6; binds A3 domain; VH SEQ ID NO:3, VL SEQ ID NO:5 (antibody, listed as Mus musculus, V domains shown)
VH: QVTLKESGPGILKPSQTLSLTCSFSGFSLSTSGMGVGWIRQPSGKGLEWLAHIWWDDDKYYNPSLKSQLTISKDTSRNQVFLKITSVDAADTATYYCARKRSSVVAHYYAMDYWGQGTSVTVSS
VL: DIVLTQSPASLAVSLGQRATISCKASQSVDYDGDSYLNWYQQKPGQPPKLLIYAASNLESGIPARFSGSGSGTDFTLNIHPVEEEDAATYYCQQSNGDPWTFGGGTKLEIK
Baboons (Papio anubis) [1]; 4 mm graft
  End-point fibrin deposition reduced compared with controls: 81%
Baboons (Papio anubis) [1]; 4 mm graft, control 1.18±0.19
  End-point fibrin deposition: 0.23 ± 0.07 mg
Baboons (Papio anubis) [1]; 10 min after graft exposure, 4 mm graft, control 0.23±0.03
  platelet accumulation: 0.13±0.03 ×10^9 platelets
Baboons (Papio anubis) [1]; 60 min, 4 mm graft
  Graft platelet accumulation lower than in vehicle controls: 63%
Baboons (Papio anubis) [1]; 60 min, 4 mm graft, n=6, control 3.68±0.52
  Graft platelet accumulation: 1.38±0.26 ×10^9 platelets
Baboons (Papio anubis) [1]; in vivo
  Systemic platelet counts, change following thrombosis experiments: did not change significantly
Baboons (Papio anubis) [1]; prior to thrombosis studies, control 337±31
  Systemic platelet counts: 341±27 ×10^3/μl
baboons; 2 mg/kg i.v. bolus, 4 baboons
  adverse reactions to the antibody: No adverse reactions
baboons; one week follow-up periods of observation
  adverse bleeding events: No re-bleeding phenomena, petechiae, hematomas or other adverse bleeding events
Platelet rich plasma
  Platelet aggregation in response to ADP and collagen: unchanged
Baboons (Papio anubis) [2]; at 30 min, samples taken distal to thrombi
  βTG release (platelet activation at thrombus surface) reduced: 86%
Baboons (Papio anubis) [2]; at 40 min
  TAT levels by local sampling reduced: up to 98%
Baboons (Papio anubis) [2]; at 60 min
  Systemic βTG levels reduced: 42%
  systemic TAT levels reduced versus untreated controls: 81%
Baboons (Papio anubis) [2]; at 60 min, n=6, control 22.1±2.5
  systemic TAT levels: 4.3 ± 0.5 µg/L
Baboons (Papio anubis) [2]; at 60 min, n=6, vehicle 39.5±5.5
  Systemic βTG levels: 23.0±2.1 IU/ml
Baboons (Papio anubis) [2]; pre-treatment with aXIMab (FIG. 4A)
  increase in local TAT levels: prevented the increase in local TAT levels
FXI; 1 h after 2 mg/kg, single baboon, baseline 110%
  FXI:Ag levels: 40 % of NBP levels
FXI; 1 h after 2 mg/kg, single baboon, baseline 125%
  FXI activity: < 1%
FXI; 1 h post infusion, 2 mg/kg, single baboon
  Maximum circulating FXI inhibitor levels (Bethesda assay): 72 Bethesda units [BU]
FXI; by day 15, 2 mg/kg, single baboon
  circulating FXI inhibitor levels (Bethesda assay): < 0.6 BU
FXI; day 8 post-infusion, 2 mg/kg, single baboon
  FXI:Ag levels: 300 % of control
FXI; day 27, 2 mg/kg, single baboon
  FXI activity: 136%
  Plasma FXI antigen: 130%
FXI; following the disappearance of FXI activity
  total FXI:Ag levels: temporarily increased several-fold above baseline
FXI; for 10 days after administration, 2 mg/kg, single baboon
  FXI activity inhibited: > 99%
FXI; for over a week following injection
  free FXI:Ag: < 1%
FXI; in vivo
  maximum achievable prolongation of the aPTT: about 2.5 fold
FXI; through day 15, 2 mg/kg, single baboon
  Plasma FXI antigen: above 200 % of control
[3]; FXI domains substituted with PK domains (FIG. 9)
  binding to FXI/PK chimeras: bound all FXI/PK chimeras except the chimera in which the A3 domain of FXI was substituted with a PK domain
[3]; PK domains substituted with FXI domains (FIG. 10), listed as 1A6
  binding to FXI/PK chimeras: bound only to chimeras in which the A3 domain of FXI had been inserted; also recorded: bind only to chimeras in which the A3 domain of FXI had been inserted
[3]
  FXI domain recognized: specifically recognized the third apple (A3) domain
[3]; listed as 1A6
  FXI domain recognized: bound to an epitope on the FXI A3 domain

— US10577428B2, “Anti-factor XI monoclonal antibodies and methods of use thereof” (Oregon Health & Science University, priority 2007, dated 2020)
